Results: patent US20180111996A1 (Merck Sharp & Dohme, published 2018)
Numbering of substitutions follows the chain as printed. Names may count otherwise. Where two headings read alike, the source gives them in different places.

Key:
[1] = target: T1, cynomolgus macaque PD-1 receptor on stably transfected CHO-K1 cells (cynomolgus macaque, UniProt B0LAJ3 25-288); assay: inhibition of ligand (PD-L1, PD-L2) binding to cynomolgous PD-1
T1 construct: also called cynomolgus PD-1; cynomolgous PD-1

[2] = target: cynomolgous PD-1 (form in the kinetic assay not stated) (cynomolgus macaque); assay: kinetic analysis, format for cynomolgus PD-1 not stated
[3] = target: T2, human PD-1 (hPD-1) receptor expressed on cells (human, UniProt Q15116 25-288); assay: CELISA on CHO-hPD-1 cells
T2 construct: whole, on cells; also called hPD-1/CHO; CHO-hPD1
T2 sequence (Q15116 25-288): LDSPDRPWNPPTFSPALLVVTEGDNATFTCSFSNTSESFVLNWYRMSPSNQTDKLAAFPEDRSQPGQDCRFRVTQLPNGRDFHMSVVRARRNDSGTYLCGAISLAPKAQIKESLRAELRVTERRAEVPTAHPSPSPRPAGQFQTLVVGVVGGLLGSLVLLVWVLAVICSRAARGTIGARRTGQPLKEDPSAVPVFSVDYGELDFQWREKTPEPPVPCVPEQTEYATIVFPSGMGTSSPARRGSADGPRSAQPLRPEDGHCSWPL

hPD-1/Fc (R & D Systems) [4] = target: T3, hPD-1/Fc (R & D Systems) (human, UniProt Q15116 25-167); assay: bio-light interferometry (ForteBio Octet), PD-1/Fc on biosensor
T3 construct: also called human PD-1/Fc; PD-1-Fc fusion protein; not shown: Fc part of the bought fusion protein, not described
T3 sequence (Q15116 25-167 limits assumed): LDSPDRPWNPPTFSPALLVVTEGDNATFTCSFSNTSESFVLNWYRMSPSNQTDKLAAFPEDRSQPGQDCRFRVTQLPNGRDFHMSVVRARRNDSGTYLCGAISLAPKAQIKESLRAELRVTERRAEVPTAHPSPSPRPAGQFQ

[5] = target: T2, human PD-1 (hPD-1) receptor expressed …; assay: FMAT, blockade of hPD-L1/Fc binding to CHO-hPD-1 cells
hPD-1/Fc (R & D Systems) [6] = target: T3, hPD-1/Fc (R & D Systems); assay: protein ELISA, hPD-1/Fc immobilized
[7] = target: T2, human PD-1 (hPD-1) receptor expressed …; assay: FMAT, blockade of hPD-L2/Fc binding to CHO-hPD-1 cells
[8] = target: T2, human PD-1 (hPD-1) receptor expressed …; assay: FMAT, blockade of labeled hPD-L1/Fc binding to CHO-hPD-1 cells
[9] = target: T4, mouse PD-1 receptor on stably transfected CHO-K1 cells (mouse, UniProt Q02242 25-288); assay: CELISA and other assays on mouse PD-1 transfected CHO-K1 cells
T4 construct: whole, on cells
T4 sequence (looked up): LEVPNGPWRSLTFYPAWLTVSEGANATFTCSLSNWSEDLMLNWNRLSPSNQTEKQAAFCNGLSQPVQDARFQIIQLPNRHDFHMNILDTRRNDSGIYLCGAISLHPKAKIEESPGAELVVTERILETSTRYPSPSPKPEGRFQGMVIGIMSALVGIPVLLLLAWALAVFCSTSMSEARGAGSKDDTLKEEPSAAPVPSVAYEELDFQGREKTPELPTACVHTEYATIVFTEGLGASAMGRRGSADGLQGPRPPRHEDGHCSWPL

[10] = target: T2, human PD-1 (hPD-1) receptor expressed …; assay: FMAT competition on CHO-hPD-1 cells; blocked ligand: fluorescently labelled hPD-L1/Fc at a constant concentration
[11] = target: T2, human PD-1 (hPD-1) receptor expressed …; assay: CELISA on CHO-hPD-1 cells; remark: listed apart in the source
[12] = target: T1, cynomolgus macaque PD-1 receptor on …; assay: CELISA on cynomolgus PD-1 transfected CHO-K1 cells
[13] = target: T2, human PD-1 (hPD-1) receptor expressed …; assay: cell-based or functional assay
hPD-1/Fc (R & D Systems) [14] = target: T3, hPD-1/Fc (R & D Systems); assay: bio-light interferometry (ForteBio Octet); lower end tied to 09A by Table II
[15] = target: T2, human PD-1 (hPD-1) receptor expressed …; assay: FACS, blockade of hPD-L1/Fc binding to CHO cells expressing human PD-1
hPD-1/Fc (R & D Systems) [16] = target: T3, hPD-1/Fc (R & D Systems); assay: protein ELISA, hPD-1/Fc immobilized; remark: listed apart in the source
[17] = target: T2, human PD-1 (hPD-1) receptor expressed …; assay: FACS, blockade of hPD-L1/Fc binding to CHO cells expressing human PD-1; remark: listed apart in the source
[18] = target: T2, human PD-1 (hPD-1) receptor expressed …; assay: FMAT competition on CHO-hPD-1 cells; blocked ligand: fluorescently labelled hPD-L2/Fc at a constant concentration
[19] = target: T2, human PD-1 (hPD-1) receptor expressed …; assay: FMAT, blockade of labeled hPD-L2/Fc binding to CHO-hPD-1 cells
hPD-1/Fc (R & D Systems) [20] = target: T3, hPD-1/Fc (R & D Systems); assay: bio-light interferometry (ForteBio Octet), PD-1/Fc on biosensor; remark: listed apart in the source
[21] = target: T2, human PD-1 (hPD-1) receptor expressed …; assay: CELISA on CHO cells expressing human PD-1, 450/620 nm

T1 sequence (B0LAJ3 entry or part of it limits assumed): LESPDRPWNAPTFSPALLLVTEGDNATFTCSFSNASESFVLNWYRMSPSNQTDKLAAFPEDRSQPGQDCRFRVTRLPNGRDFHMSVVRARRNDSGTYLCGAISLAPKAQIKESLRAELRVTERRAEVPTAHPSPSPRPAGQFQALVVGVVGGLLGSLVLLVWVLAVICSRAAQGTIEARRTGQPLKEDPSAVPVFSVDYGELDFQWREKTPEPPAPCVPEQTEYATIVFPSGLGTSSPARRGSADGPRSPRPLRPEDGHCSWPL

B1: h409A11 (antibody, human IgG4 S228P, kappa, V domains shown)
VH: QVQLVQSGVEVKKPGASVKVSCKASGYTFTNYYMYWVRQAPGQGLEWMGGINPSNGGTNFNEKFKNRVTLTTDSSTTTAYMELKSLQFDDTAVYYCARRDYRFDMGFDYWGQGTTVTVSS
VL: EIVLTQSPATLSLSPGERATLSCRASKGVSTSGYSYLHWYQQKPGQAPRLLIYLASYLESGVPARFSGSGSGTDFTLTISSLEPEDFAVYYCQHSRDLPLTFGGGTKVEIKR
notes: also called humanized IgG4 version of 09A antibody (409A-H + K09A-L-11)
[1]
  IC50: < 1000 pM
[2]
  Kd: < 120 pM

B2: h409A16 (antibody, human IgG4 S228P, kappa, V domains shown)
VH: B1 VH
VL: EIVLTQSPLSLPVTPGEPASISCRASKGVSTSGYSYLHWYLQKPGQSPQLLIYLASYLESGVPDRFSGSGSGTDFTLKISRVEAEDVGVYYCQHSRDLPLTFGQGTKLEIKR
notes: also called humanized IgG4 version of 09A antibody (409A-H + K09A-L-16)
[1]
  IC50: < 1000 pM
[3]
  EC50: 63 pM
hPD-1/Fc (R & D Systems) [4]
  Kd: 27.3 pM
  koff: 2.72e-05 s⁻¹
  kon: 997000 M⁻¹ s⁻¹
[2]
  Kd: < 120 pM
[5]
  IC50: 696 pM
hPD-1/Fc (R & D Systems) [6]
  EC50: 90 pM
[7]
  IC50: 810 pM

B3: h409A17 (antibody, human IgG4 S228P, kappa, V domains shown)
VH: B1 VH
VL: B2 VL with E1D, L4M, S7T, D74A, V89L
notes: also called humanized IgG4 version of 09A antibody (409A-H + K09A-L-17)
[1]
  IC50: < 1000 pM
[3]
  EC50: 83 pM
hPD-1/Fc (R & D Systems) [4]
  Kd: 191 pM
  koff: 0.000191 s⁻¹
  kon: 1e+06 M⁻¹ s⁻¹
[5]
  IC50: 818 pM
hPD-1/Fc (R & D Systems) [6]
  EC50: 88 pM
[7]
  IC50: 463 pM

B4: hPD-1.09A (antibody, V domains shown)
VH: QVQLQQPGAELVKPGTSVKLSCKASGYTFTNYYMYWVKQRPGQGLEWIGGINPSNGGTNFNEKFKNKATLTVDSSSSTTYMQLSSLTSEDSAVYYCTRRDYRFDMGFDYWGQGTTLTVSS
VL: DIVLTQSPASLAVSLGQRAAISCRASKGVSTSGYSYLHWYQQKPGQSPKLLIYLASYLESGVPARFSGSGSGTDFTLNIHPVEEEDAATYYCQHSRDLPLTFGTGTKLELK
[8]
  IC50: 0.9 pM
[9]
  binding result: no binding
[10]
  IC50 (read off the curve): ~800 pM
[11]
  EC50: 113 pM
[12]
  binding result: binds
[13]
  fold change in IFNgamma, SEB stimulated blood of patient A (prostate), 25 ug/mL hPD-1.09A vs SEB alone: 1.9 fold
  fold change in IFNgamma, SEB stimulated blood of patient B (prostate), 25 ug/mL hPD-1.09A vs SEB alone: 1.2 fold
  fold change in IFNgamma, SEB stimulated blood of patient C (prostate), 25 ug/mL hPD-1.09A vs SEB alone: 2 fold
  fold change in IFNgamma, SEB stimulated blood of patient D (melanoma), 25 ug/mL hPD-1.09A vs SEB alone: 1.5 fold
  fold change in IL-2, SEB stimulated blood of patient A (prostate), 25 ug/mL hPD-1.09A vs SEB alone: 3.4 fold
  fold change in IL-2, SEB stimulated blood of patient B (prostate), 25 ug/mL hPD-1.09A vs SEB alone: 2.1 fold
  fold change in IL-2, SEB stimulated blood of patient C (prostate), 25 ug/mL hPD-1.09A vs SEB alone: 2 fold
  fold change in IL-2, SEB stimulated blood of patient D (melanoma), 25 ug/mL hPD-1.09A vs SEB alone: 2 fold
  fold change in IL-5, SEB stimulated blood of patient A (prostate), 25 ug/mL hPD-1.09A vs SEB alone: 0.7 fold
  fold change in IL-5, SEB stimulated blood of patient B (prostate), 25 ug/mL hPD-1.09A vs SEB alone: 0.4 fold
  fold change in IL-5, SEB stimulated blood of patient C (prostate), 25 ug/mL hPD-1.09A vs SEB alone: 0.9 fold
  fold change in IL-5, SEB stimulated blood of patient D (melanoma), 25 ug/mL hPD-1.09A vs SEB alone: 0.4 fold
  fold change in IL-6, SEB stimulated blood of patient A (prostate), 25 ug/mL hPD-1.09A vs SEB alone: 2.1 fold
  fold change in IL-6, SEB stimulated blood of patient B (prostate), 25 ug/mL hPD-1.09A vs SEB alone: 2.2 fold
  fold change in IL-6, SEB stimulated blood of patient C (prostate), 25 ug/mL hPD-1.09A vs SEB alone: 2.4 fold
  fold change in IL-6, SEB stimulated blood of patient D (melanoma), 25 ug/mL hPD-1.09A vs SEB alone: 1.9 fold
  fold change in IL-13, SEB stimulated blood of patient A (prostate), 25 ug/mL hPD-1.09A vs SEB alone: 0.8 fold
  fold change in IL-13, SEB stimulated blood of patient B (prostate), 25 ug/mL hPD-1.09A vs SEB alone: 0.6 fold
  fold change in IL-13, SEB stimulated blood of patient C (prostate), 25 ug/mL hPD-1.09A vs SEB alone: 1.1 fold
  fold change in IL-13, SEB stimulated blood of patient D (melanoma), 25 ug/mL hPD-1.09A vs SEB alone: 0.5 fold
  fold change in IL-17, SEB stimulated blood of patient A (prostate), 25 ug/mL hPD-1.09A vs SEB alone: 1.8 fold
  fold change in IL-17, SEB stimulated blood of patient B (prostate), 25 ug/mL hPD-1.09A vs SEB alone: 2.6 fold
  fold change in IL-17, SEB stimulated blood of patient C (prostate), 25 ug/mL hPD-1.09A vs SEB alone: 2.4 fold
  fold change in IL-17, SEB stimulated blood of patient D (melanoma), 25 ug/mL hPD-1.09A vs SEB alone: 2 fold
  fold change in TNFalpha, SEB stimulated blood of patient A (prostate), 25 ug/mL hPD-1.09A vs SEB alone: 2 fold
  fold change in TNFalpha, SEB stimulated blood of patient B (prostate), 25 ug/mL hPD-1.09A vs SEB alone: 1.5 fold
  fold change in TNFalpha, SEB stimulated blood of patient C (prostate), 25 ug/mL hPD-1.09A vs SEB alone: 2.4 fold
  fold change in TNFalpha, SEB stimulated blood of patient D (melanoma), 25 ug/mL hPD-1.09A vs SEB alone: 1.9 fold
hPD-1/Fc (R & D Systems) [14]
  Kd: 20 pM
[15]
  IC50: 0.8 pM
hPD-1/Fc (R & D Systems) [16]
  EC50: 123 pM
[17]
  IC50: < 1000 pM
[18]
  IC50 (read off the curve): ~2000 pM
[19]
  IC50: 1.7 pM
hPD-1/Fc (R & D Systems) [20]
  Kd: 22 pM
  koff: 3.6e-05 s⁻¹
  kon: 1.64e+06 M⁻¹ s⁻¹
[21]
  EC50 (read off the curve): ~100 pM

B5: hPD-1.08A (antibody, V domains shown)
VH: QVQLQQPGAELVKPGASVKLSCKASGYTFTSYYLYWMKQRPGQGLEWIGGVNPSNGGTNFSEKFKSKATLTVDKSSSTAYMQLSSLTSEDSAVYYCTRRDSNYDGGFDYWGQGTTLTVSS
VL: B4 VL with A9T, A20T, G28S, Y34F, S47P, Y53F, Y57N, R96W, D97E, T104A
[8]
  IC50: 0.73 pM
[9]
  binding result: no binding
[10]
  IC50 (read off the curve): ~700 pM
[11]
  EC50: 79 pM
[12]
  binding result: binds
[15]
  IC50: 0.9 pM
hPD-1/Fc (R & D Systems) [16]
  EC50: 76 pM
[17]
  IC50: < 1000 pM
[18]
  IC50 (read off the curve): ~2000 pM
[19]
  IC50: 2.1 pM
hPD-1/Fc (R & D Systems) [20]
  Kd: 24.1 pM
  koff: 3.03e-05 s⁻¹
  kon: 1.25e+06 M⁻¹ s⁻¹
[21]
  EC50 (read off the curve): ~80 pM
